In patent publication US20050272635A1 (published 2005):

Target: T1, glycoprotein hormone beta 5 (GPHB5) (human, UniProt Q86YW7 25-130, one N-linked glycosylation (position not given))
T1 construct: Secreted from the CHO 180 cell line co-expressing GPHA2 and GPHB5; also called beta subunit of CGH
T1 sequence: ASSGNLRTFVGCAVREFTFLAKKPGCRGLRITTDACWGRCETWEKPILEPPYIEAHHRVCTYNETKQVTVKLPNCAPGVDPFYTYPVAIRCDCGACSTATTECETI
Assay: co-expression in CHO cells; secreted heterodimer

B1: glycoprotein hormone alpha2 (GPHA2) (ligand)
chain: QEAVIPGCHLHPFNVTVRSDRQGTCQGSHVAQACVGHCESSAFPSRYSVLVASGYRHNITSVSQCCTISGLKKVKVQLQCVGSRREELEIFTARACQCDMCRLSRY
modifications: two N-linked glycosylations (positions not given)
notes: Secreted from the CHO 180 cell line co-expressing GPHA2 and GPHB5; also called Zsig51; alpha subunit of CGH
binding result: binds
